This is an account of results in patent US20240409618A1.

The target in the assay is SARS-CoV-2 B.1.351 (Beta) spike on pseudotyped virus (SARS-CoV-2 B.1.351) (UniProt P0DTC2). Briefly: cell-based or functional assay.

Bounds are passed on as bounds.

Consider DMAb REGN10987 (FcWT) (antibody), for which the fold change of neutralization against B.1.351 pseudovirus relative to WA1/2020 was less than 3 fold.
